Experimental data as given in article PMC7000685 (Nature Communications, 2020).
Positions count from the first letter of the chain named. Numbers in names are those of the source.

B1: human glutamine fructose-6-phosphate amidotransferase-1 (GFAT-1) isoform 2, full length, with internal His6-tag (enzyme, UniProt Q06210-2 1-681, looked up)
chain: MCGIFAYLNYHVPRTRREILETLIKGLQRLEYRGYDSAGVGFDGGNDKDWEANACKIQLIKKKGKVKALDEEVHKQQDMDLDIEFDVHLGIAHTRWATHGEPSPVNSHPQRSDKNNEFIVIHNGIITNYKDLKKFLESKGYDFESETDTETIAKLVKYMYDNRESQDTSFTTLVERVIQQLEGAFALVFKSVHFPGQAVGTRRGSPLLIGVRSEHKLSTDHIPILYRTGKDKKGSCNLSRVDSTTCLFPVEEKAVEYYFASDASAVIEHTNRVIFLEDDDVAAVVDGRLSIHRIKRTAGDHPGRAVQTLQMELQQIMKGNFSSFMQKEIFEQPESVVNTMRGRVNFDDYTVNLGGLKDHIKEIQRCRRLILIACGTSYHAGVATRQVLEELTELPVMVELASDFLDRNTPVFRDDVCFFLSQSGETADTLMGLRYCKERGALTVGITNTVGSSISRETDCGVHINAGPEIGVASTKAYTSQFVSLVMFALMMCDDRISMQERRKEIMLGLKRLPDLIKEVLSMDDEIQKLATELYHQKSVLIMGRGYHYATCLEGALKIKEITYMHSEGILAGELKHGPLALVDKLMPVIMIIMRDHTYAKCQNALQQVVARQGRPVVICDKEDTETIKNTKRTIKVPHSVDCLQGILSVIPLQLLAFHLAVLRGYDVDFPRNLAKSVTVE
modifications: phosphoserine at 243 (found in mass spectrometry and in the crystal structure)
notes: human GFAT-1 isoform 2 (glutamine fructose-6-phosphate amidotransferase-1, EC 2.6.1.16), full length; residue numbers run to 681 (C-loop 670-681); His6 inserted between Gly299 and Asp300; Initial methionine removed in the purified protein; also called GFAT-1 WT; wild type GFAT-1; source: Sf21 insect cells (MultiBac baculovirus), purified (Ni-NTA, SEC); not shown: His6, internal (after residue …)
B2: human GFAT-1 G451E (isoform 2, full length, with internal His6-tag) (enzyme, UniProt Q06210-2 1-681, looked up)
chain: B1 chain with G451E
notes: human GFAT-1 isoform 2, full length, with G451E; His6 inserted between Gly299 and Asp300 (made from pFL-hGFAT1-His299); Same construct as m1 with the point mutation G451E; source: Sf21 insect cells (MultiBac baculovirus), purified (Ni-NTA, SEC)

Molecular target: the molecule itself
Test: crystal structure; sitting-drop vapor diffusion at 20 °C, 8 mg/ml GFAT-1; 0.1 M Bis tris propane pH 8.5-9.0, 0.2-0.4 M potassium sodium tartrate, 20% (w/v) PEG3350; SEC buffer with Frc6P, 50 mM L-Arg and 50 mM L-Glu; two monomers in the asymmetric unit

Row | Protein | stoichiometry N | binding result
1 | B1 | 2 | 
2 | B2 |  | binds
